In PMC9313131 (2022):

B1: CDC37 (cell division cycle 37), wild type, full-length (natural protein)
chain: MVDYSVWDHIEVSDDEDETHPNIDTASLFRWRHQARVERMEQFQKEKEELDRGCRECKRKVAECQRKLKELEVAEGGKAELERLQAEAQQLRKEERSWEQKLEEMRKKEKSMPWNVDTLSKDGFSKSMVNTKPEKTEEDSEEVREQKHKTFVEKYEKQIKHFGMLRRWDDSQKYLSDNVHLVCEETANYLVIWCIDLEVEEKCALMEQVAHQTIVMQFILELAKSLKVDPRACFRQFFTKIKTADRQYMEGFNDELEAFKERVRGRAKLRIEKAMKEYEEEERKKRLGPGGLDPVEVYESLPEELQKCFDVKDVQMLQDAISKMDPTDAKYHMQRCIDSGLWVPNSKASEAKEGEEAGPGDPLLEAVPKTGDEKDVSV

Key:
[1] = molecular target: sBRAF V600E (solubilized BRAF kinase domain, residues 423-723, V600E) (human, UniProt P15056 423-723, V600E); assay: ITC
[2] = molecular target: B1; assay: ITC

Binder | Ka [1] | Ka [2]
B1 | 2.44e+06 M⁻¹ | –
sBRAF, solubilized version of BRAF kinase domain (residues 423-723), V600 background (domain or fragment) QRERKSSSSSEDRNRMKTLGRRDSSDDWEIPDGQITVGQRIGSGSFGTVYKGKWHGDVAVKMLNVTAPTPQQLQAFKNEVGVLRKTRHVNILLFMGYSTKPQLAIVTQWCEGSSLYHHLHASETKFEMKKLIDIARQTARGMDYLHAKSIIHRDLKSNNIFLHEDNTVKIGDFGLATVKSRWSGSHQFEQLSGSILWMAPEVIRMQDSNPYSFQSDVYAFGIVLYELMTGQLPYSNINNRDQIIEMVGRGSLSPDLSKVRSNCPKRMKRLMAECLKKKRDERPSFPRILAEIEELARELSG | – | 965000 M⁻¹
